Target: the molecule itself
Experiment: not stated; MLKL trimer formation in T/S-treated L929 cells, with or without UCF-101 (Supplementary Fig. 5)

B1: MLKL (natural protein, mouse (endogenous in L929), UniProt Q9D2Y4 1-472, looked up)
chain: MDKLGQIIKLGQLIYEQCEKMKYCRKQCQRLGNRVHGLLQPLQRLQAQGKKNLPDDITAALGRFDEVLKEANQQIEKFSKKSHIWKFVSVGNDKILFHEVNEKLRDVWEELLLLLQVYHWNTVSDVSQPASWQQEDRQDAEEDGNENMKVILMQLQISVEEINKTLKQCSLKPTQEIPQDLQIKEIPKEHLGPPWTKLKTSKMSTIYRGEYHRSPVTIKVFNNPQAESVGIVRFTFNDEIKTMKKFDSPNILRIFGICIDQTVKPPEFSIVMEYCELGTLRELLDREKDLTMSVRSLLVLRAARGLYRLHHSETLHRNISSSSFLVAGGYQVKLAGFELSKTQNSISRTAKSTKAERSSSTIYVSPERLKNPFCLYDIKAEIYSFGIVLWEIATGKIPFEGCDSKKIRELVAEDKKQEPVGQDCPELLREIINECRAHEPSQRPSVDGRSLSGRERILERLSAVEESTDKKV
notes: MLKL, endogenous in the mouse fibroblast line L929; The trimer is seen in the execution phase of necroptosis; also called mixed lineage kinase domain like pseudokinase; MLKL trimer; source: endogenous, L929 cells treated with TNF-α plus Smac mimetic (T/S)
- stoichiometry N: 3
